T1: S. cerevisiae Tip20_(I481D,L585D) (S. cerevisiae, UniProt P33891 1-701, I481D | L585D)
T1 sequence: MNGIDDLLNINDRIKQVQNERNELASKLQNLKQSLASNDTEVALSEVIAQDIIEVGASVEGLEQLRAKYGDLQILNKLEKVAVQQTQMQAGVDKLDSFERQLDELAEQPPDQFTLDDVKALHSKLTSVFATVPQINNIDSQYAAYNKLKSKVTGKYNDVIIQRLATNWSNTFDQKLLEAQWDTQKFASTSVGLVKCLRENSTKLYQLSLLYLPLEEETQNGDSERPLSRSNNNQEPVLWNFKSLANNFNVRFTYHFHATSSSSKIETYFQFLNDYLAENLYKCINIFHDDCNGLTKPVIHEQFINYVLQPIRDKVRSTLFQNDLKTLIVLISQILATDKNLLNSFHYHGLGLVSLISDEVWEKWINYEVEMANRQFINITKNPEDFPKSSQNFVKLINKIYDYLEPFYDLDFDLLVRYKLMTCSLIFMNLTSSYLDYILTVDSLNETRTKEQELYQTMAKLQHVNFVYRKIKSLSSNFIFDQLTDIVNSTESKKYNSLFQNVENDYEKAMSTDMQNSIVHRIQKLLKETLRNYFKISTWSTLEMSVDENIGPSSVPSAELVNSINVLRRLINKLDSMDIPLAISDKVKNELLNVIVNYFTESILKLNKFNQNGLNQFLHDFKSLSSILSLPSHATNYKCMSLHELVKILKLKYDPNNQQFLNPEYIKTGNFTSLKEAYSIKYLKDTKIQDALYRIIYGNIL


Experiments:
[1] = target: E. gossypii Tip20 (residues 1-672) (E. gossypii); experiment: ITC
[2] = target: T1, S. cerevisiae Tip20_(I481D,L585D); experiment: ITC

Molecule	Kd [1] [nM]	fold increase in KD against wild-type Tip20 [2] [fold]
E. gossypii MBP-Sec20NTD (domain or fragment)	100	–
S. cerevisiae Sec20_(1-174) (domain or fragment, UniProt P28791 1-174, looked up) MVVTFLQDLEVLQDALLNNLQKLSAISRRKESGESKHDNKDSFAAIANEHNDEEEEIEFEDLVNIIESKVSDFESVLKCSIVEMTYKYPELKLQWEKSPRYDQCDKLHIVKLDKQMNEDIYAQLVEELDFVLQFVDWFYCYRLKVKEILRQHHKRDLAWNDEKRDRAIKFHAVD	–	15

Reference: publication doi:10.1101/2020.04.07.029496 (bioRxiv, 2020)
